Reference: publication PMC2819980

Substrate: NCCCP(=O)(O)OP(=O)(O)OC[C@H]1O[C@@H](n2ccc(N)nc2=O)[C@H](O)[C@@H]1O
Assay: steady-state kinetics
Assay type: biochemical, Streptomyces rubellomurinus

B1: FrbG (Streptomyces rubellomurinus) (protein)
chain: MTHYATVICGGGPAGVSAVVAAAVQGRLEEFLDRGVLLVEATGRAGSGSIPHYGIRANSLGSAFLECLDGPAGSGLLAGLADSAEARELRGWADEYPPLPVVGAFLTLVGERVVDALRRHPRCDALLGHRVVEVRTGPERATVLLSGPDGELSHTGDRVLLTMGGRERTELAPDALAALVERRPGLRVLSSGEVITDPSWHPDAASPHRALGSIAVLGGAHSAWAVAAHLARLARAGWFAGPVEVTVVERRLPPIFYFSAAEARAEGYRWDEADVCGPSGRVHRFGGLRGPARELARQVMGLAAEKAPDGFGQVVLDGPWTAEALEAAVGDADLVITALGYDARLPRLLGADGRELELARPRGAVDTGRDGLPGLAAGGRAERLVMYGLGAGLVPSEETGGEPGYRGRLDGVWVYQHDIGAVILRALLANDRTEDGR
Km: 15.1 ± 1.5 µM | kcat: 0.0987 ± 0.00633 s⁻¹ | kcat/Km: 6520 M⁻¹ s⁻¹
